Biological target: UBR5 (UniProt O95071)
Test: co-IP and immunoblot, transfected cells
Settings: reference: ACSL4 wild type; sites S447

binding against the reference: lost
Substance: ACSL4 (from UniProt O60488) ACSL4 S447A

Reference: PMC10477855
